According to patent publication US20020127232A1:

Key:
[1] = biological target: α2M receptor on peritoneal macrophages of C57BL/6 mice (mouse) (UniProt Q91ZX7); experiment: saturation binding of 125I-labeled ligand (0.23-60 nM) to mouse peritoneal macrophages at 4 °C for 16 h; one-site fit; concentration based on the mixture of slow and fast forms
[2] = biological target: α2M receptor on peritoneal macrophages of C57BL/6 mice (mouse) (UniProt Q91ZX7); experiment: saturation binding of 125I-labeled ligand (0.23-60 nM) to mouse peritoneal macrophages at 4 °C for 16 h; one-site fit

Kd [1] [nM] | Kd [2] [nM] | Molecule
8 | – | α2M*-lysozyme complex formed by incubation at 50° C. (5 h), radio-iodinated with Na125I (from UniProt P01023 24-1474; P00698 19-147)
– | 5 | α2-macroglobulin* (NH3-treated, thiol ester-cleaved human α2-macroglobulin) (protein, UniProt P01023 24-1474, looked up, thiol ester cleaved by NH3: free Cys949, Gln952 modified with -NH2; bait region intact; radio-iodinated with Na125I in the macrophage binding study) SVSGKPQYMVLVPSLLHTETTEKGCVLLSYLNETVTVSASLESVRGNRSLFTDLEAENDVLHCVAFAVPKSSSNEEVMFLTVQVKGPTQEFKKRTTVMVKNEDSLVFVQTDKSIYKPGQTVKFRVVSMDENFHPLNELIPLVYIQDPKGNRIAQWQSFQLEGGLKQFSFPLSSEPFQGSYKVVVQKKSGGRTEHPFTVEEFVLPKFEVQVTVPKIITILEEEMNVSVCGLYTYGKPVPGHVTVSICRKYSDASDCHGEDSQAFCEKFSGQLNSHGCFYQQVKTKVFQLKRKEYEMKLHTEAQIQEEGTVVELTGRQSSEITRTITKLSFVKVDSHFRQGIPFFGQVRLVDGKGVPIPNKVIFIRGNEANYYSNATTDEHGLVQFSINTTNVMGTSLTVRVNYKDRSPCYGYQWVSEEHEEAHHTAYLVFSPSKSFVHLEPMSHELPCGHTQTVQAHYILNGGTLLGLKKLSFYYLIMAKGGIVRTGTHGLLVKQEDMKGHFSISIPVKSDIAPVARLLIYAVLPTGDVIGDSAKYDVENCLANKVDLSFSPSQSLPASHAHLRVTAAPQSVCALRAVDQSVLLMKPDAELSASSVYNLLPEKDLTGFPGPLNDQDNEDCINRHNVYINGITYTPVSSTNEKDMYSFLEDMGLKAFTNSKIRKPKMCPQLQQYEMHGPEGLRVGFYESDVMGRGHARLVHVEEPHTETVRKYFPETWIWDLVVVNSAGVAEVGVTVPDTITEWKAGAFCLSEDAGLGISSTASLRAFQPFFVELTMPYSVIRGEAFTLKATVLNYLPKCIRVSVQLEASPAFLAVPVEKEQAPHCICANGRQTVSWAVTPKSLGNVNFTVSAEALESQELCGTEVPSVPEHGRKDTVIKPLLVEPEGLEKETTFNSLLCPSGGEVSEELSLKLPPNVVEESARASVSVLGDILGSAMQNTQNLLQMPYGCGEQNMVLFAPNIYVLDYLNETQQLTPEIKSKAIGYLNTGYQRQLNYKHYDGSYSTFGERYGRNQGNTWLTAFVLKTFAQARAYIFIDEAHITQALIWLSQRQKDNGCFRSSGSLLNNAIKGGVEDEVTLSAYITIALLEIPLTVTHPVVRNALFCLESAWKTAQEGDHGSHVYTKALLAYAFALAGNQDKRKEVLKSLNEEAVKKDNSVHWERPQKPKAPVGHFYEPQAPSAEVEMTSYVLLAYLTAQPAPTSEDLTSATNIVKWITKQQNAQGGFSSTQDTVVALHALSKYGAATFTRTGKAAQVTIQSSGTFSSKFQVDNNNRLLLQQVSLPELPGEYSMKVTGEGCVYLQTSLKYNILPEKEEFPFALGVQTLPQTCDEPKAHTSFQISLSVSYTGSRSASNMAIVDVKMVSGFIPLKPTVKMLERSNHVSRTEVSSNHVLIYLDKVSNQTLSLFFTVLQDVPVRDLKPAIVKVYDYYETDEFAIAEYNAPCSKDLGNA
